# Legend:
# [1] = tested on: PC-3luc cells; assay: Xenogeneic orthotopic PC-3luc prostate tumor model in nude mice (bioluminescence, immunofluorescence); type: in vivo, Balb/c nu/nu mice
# Description: The microenvironment of a developing tumor is important in cancer development and metastasis. A xenogeneic orthotopic model of prostate cancer was established to provide a minimally disruptive microenvironment for this cancer in live mice.
# In vivo and ex vivo bioluminescence imaging was performed and analyzed using an IVIS imaging system 200 series (Xenogen, Caliper Life Sciences, Hopkinton, Mass.). Bioluminescent signal was induced by i.p. injection of D-luciferin (150 mg/kg in PBS) 8 minutes prior to in vivo imaging. For ex vivo imaging, D-luciferin (300 mg/kg) was injected 7 minutes prior to necropsy. Organs of interest were immersed in a solution of D-luciferin at 150 mg/ml.
# (§1) Upon sacrifice, mouse prostate tissues were immersed in OCT medium (Tissue Teck®). Five-micrometer frozen sections were stained with hematoxylin-eosin (H&E). For immunofluorescence, unstained prostate sections were fixed with acetone or methanol. For staining of nerves, fixed sections were incubated in H2O2 to quench endogenous peroxidase and non-specific binding was blocked with goat serum in bovine serum albumin (BSA) solution and the avidin/biotin blocking kit (Vector Laboratories, Burlingame, Calif.). Sections were incubated with a rabbit anti-TH antibody (Millipore, Billerica, Mass.), or anti-VAChT antibody (Phoenix Pharmaceuticals, Inc., Burlingame, Calif.), or anti-NF-L antibody (Millipore), or anti-NF-H antibody (Abcam, Cambridge, Mass.) and then with a secondary biotinylated goat anti-rabbit antibody (Vector Laboratories). Signal was amplified using the Vectastain Elite ABC Kit (Vector Laboratories) and visualized using the Tyramide Signal Amplification kit for TRITC (PerkinElmer, Boston, Mass.).
# (§2) For proliferative cell quantification, sections were incubated with a rabbit polyclonal anti-Ki67 (Abcam) and then Alexafluor 568-conjugated goat anti-rabbit antibody (Molecular Probes, Carlsbad, Calif.).
# (§3) Human tumors were induced by orthotopic surgical implantations of 1×10^5 PC-3luc cells into six- to eight-week-old Balb/c nu/nu mice. Ten days after cell injection (day 0), the animals were randomized into the different groups and received the appropriate drugs, as indicated. 6OHDA or vehicle was injected at day 0 (100 mg/kg) and day 2 (250 mg/kg), and human recombinant G-CSF treatment was begun on day 4 (Amgen, 250 μg/kg/day, every 12 hours, 8 divided doses, i.p., in 5% dextrose). A second cycle was administered eight weeks after graft and animals were sacrificed three weeks after the last injection of G-CSF (i.e., 11 weeks after graft). In other experiments, 2×10^5 PC-3luc cells were orthotopically injected into nu/nu Adrβ2^tm1Bkk/J+/+ Adrβ3^tm1Lowl/J+/+, nu/nu Adrβ2^tm1Bkk/J−/−, nu/nu Adrβ3^tm1Lowl/J−/− and nu/nu Adrβ2^tm1Bkk/J−/− Adrβ3^tm1Lowl/J−/−. In selected experiments, 2×10^6 LNCaP-luc cells were injected in nu/nu Adrβ2^tm1Bkk/J+/+ Adrβ3^tm1Lowl/J+/+ and nu/nu Adrβ2^tm1Bkk/J−/− Adrβ3^tm1Lowl/J−/− mice. For the transgenic model, one-, two- or five-month-old c-Myc mice were injected with 6OHDA or surgically sympathectomized according to protocols described above and sacrificed 30 days later.
# A second cycle was administered at week four and mice were sacrificed one week later (five weeks after graft). For cholinergic experiments using the nu/nu Chrm1^tm1Stl+/+ and nu/nu Chrm1^tm1Stl−/− animals, mice were sacrificed at week six post-graft. For the survival study, grafted mice were treated as described hereinabove from week 4, every two weeks for up to 25 weeks or until death. Disease progression was monitored by bioluminescence scanner. […] One week later, mice received a second round of treatment and were then sacrificed at month four.
# [2] = tested on: prostate cancer in cMyc mice; assay: cMyc transgenic mouse model of prostate cancer (mPIN, invasive cancer zones); type: in vivo; conditions: G-CSF; 11 weeks of age
# Description: To investigate further the activity of G-CSF on tumor development using a genetic mouse model, transgenic mice expressing human cMyc under the ARR2/probasin promoter expressed specifically in the prostate (hereafter cMyc mice) were evaluated. This transgenic model leads to the complete penetrance of mouse prostatic intraepithelial neoplasia (mPIN) from postnatal week 2, progressing to invasive adenocarcinomas between 3 to 6 months of age (FIG. 2m). […] The development of invasive cancer was associated with a broad infiltration of NF-L+ neo-fibers by comparison with control animals (FIG. 2o). Thus, the increased tumor/normal epithelial cell proliferation following G-CSF administration is associated with (i.e., is correlated to) the development of new nerve fibers in the primary tumor. Accordingly, a method of treating cancer in a subject such as a human patient or non-human animal (e.g., non-human mammal) comprises administering a prophylactically or therapeutically effective amount of an inhibitor of NF-L+ neo-fibers. In some embodiments, the method comprises administering a prophylactically or therapeutically effective amount of an inhibitor of G-CSF.
# as §3
# To ascertain the role of sympathetic innervation in tumor initiation using a genetic model, the effect of chemical or surgical sympathectomy on prostate cancer in cMyc mice was evaluated. For this study, transgenic cMyc mice expressing human c-Myc under the ARR2/probasin promoter expressed specifically in the prostate (AAR2/Pbsn-MYC) were used. This transgenic model leads to the complete penetrance of mouse prostatic intraepithelial neoplasia (mPIN) from postnatal week 2, progressing to invasive adenocarcinomas between 3 to 6 months of age (FIG. 6e). To this end, mice were chemically sympathectomized one month prior to histological analyses.
# Disease progression was monitored by bioluminescence scanner. […] Mice were sacrificed at week 10.
# [3] = tested on: PC-3luc cells; assay: PC-3luc cell proliferation / cytotoxicity in vitro (MTT); type: cell-based, human; conditions: G-CSF, 96 hours, three concentrations
# Description: A cell proliferation assay was performed on human PC-3 prostate tumor cells after 96 hours of treatment by G-CSF at three different concentrations by comparison with human leukemic cells (HL-60 and U937). Cell proliferation was quantified by a cell viability assay using MTT (3-[4,5-dimethylthiazole-2-yl]-2,5-diphenyltetrazolium bromide (Sigma). The percentage of viable cells was calculated by comparing the optical density (OD) of the treated samples with those incubated with vehicle. Methods were carried out as described by Magnon, et al., Cancer Res, 65, 4353-61 (2005); incorporated herein by reference in its entirety.
# [4] = tested on: murine fetal neurons; assay: Neurite outgrowth in fetal neuronal cultures; type: cell-based, mouse; conditions: G-CSF, cultivation for 6 days
# Description: To evaluate neurite growth, cultures were fixed for 10 minutes at −20° C. with 5% glacial acetic acid/95% ethanol and then incubated with an anti-phosphorylated NF-H antibody (Sigma, clone NE14) and a rabbit anti-microtubule-associated protein-2 antibody (Chemicon), followed by Alexafluor488-conjugated goat anti-mouse antibody and Alexafluor568-conjugated goat anti-rabbit antibody (Molecular probes). For G-CSFR staining, mouse fetal neurons in culture were fixed with methanol and then incubated with a rabbit anti-G-CSFR (Santa-Cruz biotechnology, Santa Cruz, Calif.) and Alexafluor568-conjugated goat anti-rabbit antibody (Molecular probes). Neurite outgrowth was analyzed objectively from 40 random fields (field area=0.6 mm^2) per growth condition using the “Neurite Outgrowth” module of Metamorph software (MDSAT).
# Neuronal cultures were prepared from embryonic day 15 fetal neocortex as described in Dobrenis et al., J Neurosci. Res. 82(3):306-315 (2005), incorporated herein by reference. Briefly, after enzymatic and mechanical tissue dissociation, cells were plated at 2.5×10^4/cm^2 (day 0) and treated with 20 μg/ml 5-fluoro-2′ deoxyuridine and 50 μg/ml uridine at day 4 for 24 hours to eliminate glial growth. At day 1, cultures were maintained in serum-free medium and incubated with G-CSF at different concentrations (0, 500, 1000 ng/ml) until day 7.
# [5] = tested on: healthy prostate; assay: Healthy (tumor-free) prostate: nerve density, epithelial cell proliferation, apoptosis, Chrm1 expression; type: in vivo, mouse
# Description: as §1, §2
# For apoptotic cell quantification, prostate sections were fixed with 4% paraformaldehyde (PFA) and stained with the Mebstain Apoptosis Kit according to manufacturer's recommendations (MBL International, Woburn, Mass.). Basement membranes were stained with a rat polyclonal anti-α2laminin antibody (Abcam) followed by Alexafluor647-conjugated goat anti-rat antibody (Molecular Probes).
# Gene expression levels were analyzed from RNA extracted, using the TRIzol solution (Invitrogen, Carlsbad, Calif.), from PC-3, DU145, LNCaP cell lines or prostates from Balb/c nu/nu mice by quantitative real-time PCR, as described previously (Mendez-Ferrer, Nature, 452:442-447 (2008)).
molecule,measurement,setting,value
"G-CSF: human recombinant granulocyte-colony stimulating factor (Amgen), hematopoietic growth factor (protein, UniProt P09919 31-207, looked up) Granulocyte …: TPLGPASSLPQSFLLKCLEQVRKIQGDGAALQEKLVSECATYKLCHPEELVLLGHSLGIPWAPLSSCPSQALQLAGCLSQLHSGLFLYQGLLQALEGISPELGPTLDTLQLDVADFATTIWQQMEELGMAPALQPTQGAMPAFASAFQRRAGGVLVASHLQSFLEVSYRVLRHLAQP",tumor cell proliferation in the primary tumors (Ki67 staining),"[1]; G-CSF 250 μg/kg/day, orthotopic PC-3luc",significantly increased
same,TH+ fibers against 6OHDA-induced damage,[1]; G-CSF after 6OHDA,protected
same,development of primary tumors initially sympathectomized with 6OHDA,[1]; G-CSF after 6OHDA,rescued
same,metastases in 6OHDA-lesioned animals,[1]; G-CSF after 6OHDA,did not induce
same,invasion of inguinal lymph nodes and metastases,"[1]; G-CSF alone, bioluminescence, week 11",induced
same,size of the primary tumor,[1]; G-CSF treatment,did not affect
same,infiltration of VAChT+ parasympathetic neo-nerves,[1]; immunofluorescence of tumors,selectively promoted
same,density of newly formed NF-L+ nerves in prostate tumors,"[1]; vs PBS, 11 weeks",significantly higher densities
same,frequency of mPIN,[2],"modest, but significant, effect"
same,number of invasive cancer zones,[2],dramatically increased
same,proliferation of PC-3luc tumor cells in vitro,[3],could not stimulate
same,axonal outgrowth vs vehicle-treated controls,[4],about 2 fold
same,dendrite outgrowth,[4],unchanged
same,proliferation of healthy epithelial cells (anti-Ki67 staining),[5]; G-CSF treatment,led to proliferation
same,density of NF-L+ nerve fibers in healthy (tumor-free) prostate,"[5]; three weeks after G-CSF, vs PBS control",higher density
same,Chrm1 expression in the prostate gland,"[5]; three weeks after last G-CSF injection, Q-PCR",tended to increase

# Source: patent US20140322242A1, “MATERIALS AND METHODS FOR THE PREVENTION AND TREATMENT OF CANCER” (Icahn School of Medicine at Mount Sinai, priority 2010, published 2014)
